Columns and labels:
HeLa Kyoto [1] = experiment: melting temperature (median over replicates), in situ; higher = more thermally stable
HeLa Kyoto [2] = experiment: solubility in G1/S (NP-40 vs SDS abundance) (log2 ratio); higher = more soluble; conditions: cell cycle stage: G1/S
HeLa Kyoto [3] = experiment: thermal stability score vs G1/S (z-score of summed log2 fold changes over temperatures); higher = more thermally stable than in G1/S
HeLa Kyoto [4] = experiment: solubility change mitosis vs G1/S (difference of NP-40 vs SDS log2 ratios) (log2 ratio difference); higher = more soluble in mitosis
[5] = cell cycle stage: early G1 (4.5 h after nocodazole release)
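Wherever melting temperature (median over replicates), in situ is given: HeLa Kyoto cells synchronized by double thymidine or nocodazole block, proteins quantified by TMT10plex mass spectrometry, three independent biological replicates.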
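Wherever solubility change mitosis vs G1/S (difference of NP-40 vs SDS log2 ratios) is given: synchronized HeLa Kyoto cells (double thymidine block for G1/S, nocodazole release for mitosis), protein amounts in NP-40 versus SDS lysates quantified by mass spectrometry, three biological replicates.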
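Wherever solubility in G1/S (NP-40 vs SDS abundance) is given: HeLa Kyoto cells arrested at G1/S by double thymidine block, proteins quantified by TMT10plex mass spectrometry in mild NP-40 versus SDS extracts, three biological replicates.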
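Wherever thermal stability score vs G1/S (z-score of summed log2 fold changes over temperatures) is given: synchronized HeLa Kyoto cells, proteins quantified by TMT10plex mass spectrometry, three biological replicates, mitosis taken 0.5 h after nocodazole release, G1/S directly after double thymidine block.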

Row | Sequence | melting temperature (HeLa Kyoto [1]; cell cycle stage: G1/S) [°C] | melting temperature (HeLa Kyoto [1]; cell cycle stage: mitosis) [°C] | solubility in G1/S (log2) (HeLa Kyoto [2]) | thermal stability score (HeLa Kyoto [3]; [5]) | thermal stability score (HeLa Kyoto [3]; cell cycle stage: mitosis) | solubility change mitosis (log2) (HeLa Kyoto [4])
1 | MSAKAISEQTGKELLYKFICTTSAIQNRFKYARVTPDTDWARLLQDHPWLLSQNLVVKPDQLIKRRGKLGLVGVNLTLDGVKSWLKPRLGQEATVGKATGFLKNFLIEPFVPHSQAEEFYVCIYATREGDYVLFHHEGGVDVGDVDAKAQKLLVGVDEKLNPEDIKKHLLVHAPEDKKEILASFISGLFNFYEDLYFTYLEINPLVVTKDGVYVLDLAAKVDATADYICKVKWGDIEFPPPFGREAYPEEAYIADLDAKSGASLKLTLLNPKGRIWTMVAGGGASVVYSDTICDLGGVNELANYGEYSGAPSEQQTYDYAKTILSLMTREKHPDGKILIIGGSIANFTNVAATFKGIVRAIRDYQGPLKEHEVTIFVRRGGPNYQEGLRVMGEVGKTTGIPIHVFGTETHMTAIVGMALGHRPIPNQPPTAAHTANFLLNASGSTSTPAPSRTASFSESRADEVAPAKKAKPAMPQDSVPSPRSLQGKSTTLFSRHTKAIVWGMQTRAVQGMLDFDYVCSRDEPSVAAMVYPFTGDHKQKFYWGHKEILIPVFKNMADAMRKHPEVDVLINFASLRSAYDSTMETMNYAQIRTIAIIAEGIPEALTRKLIKKADQKGVTIIGPATVGGIKPGCFKIGNTGGMLDNILASKLYRPGSVAYVSRSGGMSNELNNIISRTTDGVYEGVAIGGDRYPGSTFMDHVLRYQDTPGVKMIVVLGEIGGTEEYKICRGIKEGRLTKPIVCWCIGTCATMFSSEVQFGHAGACANQASETAVAKNQALKEAGVFVPRSFDELGEIIQSVYEDLVANGVIVPAQEVPPPTVPMDYSWARELGLIRKPASFMTSICDERGQELIYAGMPITEVFKEEMGIGGVLGLLWFQKRLPKYSCQFIEMCLMVTADHGPAVSGAHNTIICARAGKDLVSSLTSGLLTIGDRFGGALDAAAKMFSKAFDSGIIPMEFVNKMKKEGKLIMGIGHRVKSINNPDMRVQILKDYVRQHFPATPLLDYALEVEKITTSKKPNLILNVDGLIGVAFVDMLRNCGSFTREEADEYIDIGALNGIFVLGRSMGFIGHYLDQKRLKQGLYRHPWDDISYVLPEHMSM [ACLY] | 52.2 | 52.6 | -0.0323 | 2.8 | 4.04 | -0.156
2 | MSALEWYAHKSLGDGIFWIQERFYESGNRANIWLVRGSEQDVVIDTGLGLRSLPEYLYSSGLLQDREAKEDAARRPLLAVATHVHFDHSGGLYQFDRVAVHHAEAEALARGDNFETVTWLSDSEVVRTPSPGWRARQFRVQAVQPTLILQDGDVINLGDRQLTVMHMPGHSRGSICLHDKDRKILFSGDVVYDGSLIDWLPYSRISDYVGTCERLIELVDRGLVEKVLPGHFNTFGAERLFRLASNYISKAGICHKVSTFAMRSLASLALRVTNSRTSP [MBLAC2] | 55.4 | 54.6 | -0.203 | -1.94 | -1.79 | 0.0124
3 | MSAPAGSSHPAASARIPPKFGGAAVSGAAAPAGPGAGPAPHQQNGPAQNQMQVPSGYGLHHQNYIAPSGHYSQGPGKMTSLPLDTQCGDYYSALYTVPTQNVTPNTVNQQPGAQQLYSRGPPAPHIVGSTLGSFQGAASSASHLHTSASQPYSSFVNHYNSPAMYSASSSVASQGFPSTCGHYAMSTVSNAAYPSVSYPSLPAGDTYGQMFTSQNAPTVRPVKDNSFSGQNTAISHPSPLPPLPSQQHHQQQSLSGYSTLTWSSPGLPSTQDNLIRNHTGSLAVANNNPTITVADSLSCPVMQNVQPPKSSPVVSTVLSGSSGSSSTRTPPTANHPVEPVTSVTQPSELLQQKGVQYGEYVNNQASSAPTPLSSTSDDEEEEEEDEEAGVDSSSTTSSASPMPNSYDALEGGSYPDMLSSSASSPAPDPAPEPDPASAPAPASAPAPVVPQPSKMAKPFGYGYPTLQPGYQNATAPLISGVQPSNPVYSGFQQYPQQYPGVNQLSSSIGGLSLQSSPQPESLRPVNLTQERNILPMTPVWAPVPNLNADLKKLNCSPDSFRCTLTNIPQTQALLNKAKLPLGLLLHPFRDLTQLPVITSNTIVRCRSCRTYINPFVSFIDQRRWKCNLCYRVNDVPEEFMYNPLTRSYGEPHKRPEVQNSTVEFIASSDYMLRPPQPAVYLFVLDVSHNAVEAGYLTILCQSLLENLDKLPGDSRTRIGFMTFDSTIHFYNLQEGLSQPQMLIVSDIDDVFLPTPDSLLVNLYESKELIKDLLNALPNMFTNTRETHSALGPALQAAFKLMSPTGGRVSVFQTQLPSLGAGLLQSREDPNQRSSTKVVQHLGPATDFYKKLALDCSGQQTAVDLFLLSSQYSDLASLACMSKYSAGCIYYYPSFHYTHNPSQAEKLQKDLKRYLTRKIGFEAVMRIRCTKGLSMHTFHGNFFVRSTDLLSLANINPDAGFAVQLSIEESLTDTSLVCFQTALLYTSSKGERRIRVHTLCLPVVSSLADVYAGVDVQAAICLLANMAVDRSVSSSLSDARDALVNAVVDSLSAYGSTVSNLQHSALMAPSSLKLFPLYVLALLKQKAFRTGTSTRLDDRVYAMCQIKSQPLVHLMKMIHPNLYRIDRLTDEGAVHVNDRIVPQPPLQKLSAEKLTREGAFLMDCGSVFYIWVGKGCDNNFIEDVLGYTNFASIPQKMTHLPELDTLSSERARSFITWLRDSRPLSPILHIVKDESPAKAEFFQHLIEDRTEAAFSYYEFLLHVQQQICK [SEC24B] | 48.8 | 49.5 | -0.132 | 1.03 | 1.85 | -0.119
4 | MSASASVGGPVPQPPPGPAAALPPGSAARALHVELPSQQRRLRHLRNIAARNIVNRNGHQLLDTYFTLHLCSTEKIYKEFYRSEVIKNSLNPTWRSLDFGIMPDRLDTSVSCFVVKIWGGKENIYQLLIEWKVCLDGLKYLGQQIHARNQNEIIFGLNDGYYGAPFEHKGYSNAQKTILLQVDQNCVRNSYDVFSLLRLHRAQCAIKQTQVTVQKIGKEIEEKLRLTSTSNELKKKSECLQLKILVLQNELERQKKALGREVALLHKQQIALQDKGSAFSAEHLKLQLQKESLNELRKECTAKRELFLKTNAQLTIRCRQLLSELSYIYPIDLNEHKDYFVCGVKLPNSEDFQAKDDGSIAVALGYTAHLVSMISFFLQVPLRYPIIHKGSRSTIKDNINDKLTEKEREFPLYPKGGEKLQFDYGVYLLNKNIAQLRYQHGLGTPDLRQTLPNLKNFMEHGLMVRCDRHHTSSAIPVPKRQSSIFGGADVGFSGGIPSPDKGHRKRASSENERLQYKTPPPSYNSALAQPVTTVPSMGETERKITSLSSSLDTSLDFSKENKKKGEDLVGSLNGGHANVHPSQEQGEALSGHRATVNGTLLPSEQAGSASVQLPGEFHPVSEAELCCTVEQAEEIIGLEATGFASGDQLEAFNCIPVDSAVAVECDEQVLGEFEEFSRRIYALNENVSSFRRPRRSSDK [UVRAG] | 51.7 | 52.4 | 0.216 | 0.204 | -0.16 | -0.117
5 | MSASSLLEQRPKGQGNKVQNGSVHQKDGLNDDDFEPYLSPQARPNNAYTAMSDSYLPSYYSPSIGFSYSLGEAAWSTGGDTAMPYLTSYGQLSNGEPHFLPDAMFGQPGALGSTPFLGQHGFNFFPSGIDFSAWGNNSSQGQSTQSSGYSSNYAYAPSSLGGAMIDGQSAFANETLNKAPGMNTIDQGMAALKLGSTEVASNVPKVVGSAVGSGSITSNIVASNSLPPATIAPPKPASWADIASKPAKQQPKLKTKNGIAGSSLPPPPIKHNMDIGTWDNKGPVAKAPSQALVQNIGQPTQGSPQPVGQQANNSPPVAQASVGQQTQPLPPPPPQPAQLSVQQQAAQPTRWVAPRNRGSGFGHNGVDGNGVGQSQAGSGSTPSEPHPVLEKLRSINNYNPKDFDWNLKHGRVFIIKSYSEDDIHRSIKYNIWCSTEHGNKRLDAAYRSMNGKGPVYLLFSVNGSGHFCGVAEMKSAVDYNTCAGVWSQDKWKGRFDVRWIFVKDVPNSQLRHIRLENNENKPVTNSRDTQEVPLEKAKQVLKIIASYKHTTSIFDDFSHYEKRQEEEESVKKERQGRGK [YTHDF2] | 51 | 50.7 | 0.00424 | -0.975 | -1.92 | 0.0349
6 | MSATSVDQRPKGQGNKVSVQNGSIHQKDAVNDDDFEPYLSSQTNQSNSYPPMSDPYMPSYYAPSIGFPYSLGEAAWSTAGDQPMPYLTTYGQMSNGEHHYIPDGVFSQPGALGNTPPFLGQHGFNFFPGNADFSTWGTSGSQGQSTQSSAYSSSYGYPPSSLGRAITDGQAGFGNDTLSKVPGISSIEQGMTGLKIGGDLTAAVTKTVGTALSSSGMTSIATNSVPPVSSAAPKPTSWAAIARKPAKPQPKLKPKGNVGIGGSAVPPPPIKHNMNIGTWDEKGSVVKAPPTQPVLPPQTIIQQPQPLIQPPPLVQSQLPQQQPQPPQPQQQQGPQPQAQPHQVQPQQQQLQNRWVAPRNRGAGFNQNNGAGSENFGLGVVPVSASPSSVEVHPVLEKLKAINNYNPKDFDWNLKNGRVFIIKSYSEDDIHRSIKYSIWCSTEHGNKRLDAAYRSLNGKGPLYLLFSVNGSGHFCGVAEMKSVVDYNAYAGVWSQDKWKGKFEVKWIFVKDVPNNQLRHIRLENNDNKPVTNSRDTQEVPLEKAKQVLKIIATFKHTTSIFDDFAHYEKRQEEEEAMRRERNRNKQ [YTHDF3] | 52.4 | 51.6 | 0.098 | -0.535 | -3.39 | -0.0838

From the supplement of paper PMC5998384
